This note sets out measurements from publication PMC3392941 (The Journal of Cell Biology, 2012).

The assay addresses T1, Recombinant Myo2 CBD, Myo2(1,131–1,574) (S. cerevisiae, UniProt P19524 1131-1574).
T1 sequence: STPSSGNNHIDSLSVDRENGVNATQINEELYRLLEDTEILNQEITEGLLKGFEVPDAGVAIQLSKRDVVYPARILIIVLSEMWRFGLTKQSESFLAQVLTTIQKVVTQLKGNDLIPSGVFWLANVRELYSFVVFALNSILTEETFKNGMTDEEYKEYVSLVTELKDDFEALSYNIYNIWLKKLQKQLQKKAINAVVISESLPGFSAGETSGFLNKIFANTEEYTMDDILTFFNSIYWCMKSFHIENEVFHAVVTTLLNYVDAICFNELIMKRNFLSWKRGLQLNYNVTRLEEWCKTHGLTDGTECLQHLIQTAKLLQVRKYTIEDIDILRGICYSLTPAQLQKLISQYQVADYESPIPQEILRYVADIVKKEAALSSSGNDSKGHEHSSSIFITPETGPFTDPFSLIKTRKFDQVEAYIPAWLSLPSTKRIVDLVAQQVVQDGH
Description: SEC.

For the molecule PNEAPNDSPQSQSTRSSLGSFQPRPLKIIERQRLCMVTPSKPPKKS (domain or fragment) [MBP-Vac17(112–157)], the binding result is “binds”.
